Results published in patent US20260209317A1 (US Dept. of Health and Human Services, published 2026).

Target: T1, SARS-CoV-2 WA-1 RBD protein (SARS-CoV-2, UniProt P0DTC2 319-541)
T1 construct: domain: RBD
Assay: ELISA, plate coated with WA1 RBD

B1: B2-269.1 (antibody, V domains shown)
VH: EVQLVESGGGLVQPGGSLRLSCAASGITVSSNYMSWVRQPPGKGLDWVSLIFSGGSTYYADSVKGRFTISRDNSKNTLYLQMNSLRAEDTAVYYCARVGVAVAGTDYDIWGQGTMVTVSS
VL: DIQMTQSPSSLSASVGDRVTITCQASQDINKYLNWYQQKPGKAPKLLIYDASNLETGVPSRFSGSGSGTDFTFTISSLQPEDIATYYCLHYENLPLSFGGGTKVEIK
In the case of B1, the “EC50 (read off the curve)” value is reported as roughly 4 ng/mL.
